From the supplement of paper PMC10724198
± gives the standard deviation of the averaged measurements.

Tests used:
Saccharomyces cerevisiae [1] = experiment: protein stability index of tFT-peptide fusion (C-terminal peptide) (PSI (0-1 scale)); higher = more stable (slower turnover)
Experimental: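 MPS profiling in S. cerevisiae of the tFT-X12 degron library: putative degron peptides plus stable controls, 12 aa, fused to the C-terminus of a sfGFP-mCherry timer. Cells are FACS-sorted into 8 mCherry/sfGFP bins and deep-sequenced. PSI runs from 0 (unstable) to 1 (stable). Backgrounds are wild type, das1Δ and doa10Δ at 30 °C, and wild type, das1Δ, cdc34-1 and cdc53-1 at 37 °C; 2-3 technical replicates each.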

Saccharomyces cerevisiae [2] = experiment: as above; details: genetic background: wild type; temperature: 30 C
[3] = genetic background: cdc34-1, temperature: 37 C
[4] = genetic background: cdc53-1, temperature: 37 C
[5] = genetic background: das1 deletion, temperature: 30 C
[6] = genetic background: das1 deletion, temperature: 37 C
[7] = genetic background: doa10 deletion, temperature: 30 C
[8] = genetic background: wild type, temperature: 30 C
[9] = genetic background: wild type, temperature: 37 C
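Also: PSI is a weighted mean of sequencing reads over stability bins, variants kept only with over 10 reads, mCherry proximal and sfGFP distal, peptide attached via GGGS linker.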

Sequence	protein stability index (Saccharomyces cerevisiae [1]; [3])	protein stability index (Saccharomyces cerevisiae [1]; [4])	protein stability index (Saccharomyces cerevisiae [1]; [5])	protein stability index (Saccharomyces cerevisiae [1]; [6])	protein stability index (Saccharomyces cerevisiae [1]; [7])	protein stability index (Saccharomyces cerevisiae [1]; [8])	protein stability index (Saccharomyces cerevisiae [1]; [9])	protein stability index (Saccharomyces cerevisiae [2])
RLSTTTTKQFIH	0.668 ± 0.016	0.74 ± 0.013	0.661 ± 0.045	0.753 ± 0.021	0.302 ± 0.0053	0.348 ± 0.022	0.58 ± 0.011	0.4902 ± 0.0011
SVFGVRARFGSV	0.766 ± 0.0082	0.803 ± 0.013	0.709 ± 0.018	0.781 ± 0.027	0.707 ± 0.046	0.724 ± 0.018	0.7738 ± 0.0016	0.756 ± 0.014
VLVSVSLRVCMV	0.0542 ± 0.021	0.101 ± 0.025	0.106 ± 0.03	0.206 ± 0.015	0.083 ± 0.012	0.108 ± 0.024	0.178 ± 0.016	0.162 ± 0.039
AFKRVFWALWWM	0.367 ± 0.01	0.39 ± 0.0072	0.421 ± 0.03	0.563 ± 0.039	0.431 ± 0.032	0.299 ± 0.022	0.43827 ± 0.00033	0.36 ± 0.014
PPVLAPHLCFPP	0.685 ± 0.008	0.736 ± 0.0089	0.657 ± 0.0043	0.739 ± 0.015	0.673 ± 0.028	0.675 ± 0.019	0.713 ± 0.019	0.724 ± 0.018
VSLCVVYGLVVG	0.337 ± 0.024	0.377 ± 0.022	0.29 ± 0.029	0.446 ± 0.015	0.2523 ± 0.0025	0.289 ± 0.022	0.411 ± 0.0082	0.373 ± 0.017
FSFSAFARFLVI	0.618 ± 0.048	0.704 ± 0.02	0.604 ± 0.033	0.6999 ± 0.0034	0.243 ± 0.0081	0.255 ± 0.025	0.378 ± 0.018	0.358 ± 0.036
VPSPWLIRSLMS	0.648 ± 0.024	0.687 ± 0.019	0.643 ± 0.037	0.716 ± 0.026	0.224 ± 0.0045	0.278 ± 0.026	0.518 ± 0.039	0.409 ± 0.023
HPPPTLVPPHPR	0.64 ± 0.032	0.709 ± 0.031	0.674 ± 0.011	0.727 ± 0.0074	0.7045 ± 0.0028	0.681 ± 0.019	0.6803 ± 0.0027	0.616 ± 0.19
WLFRCFLFVVGG	0.39 ± 0.025	0.441 ± 0.013	0.371 ± 0.025	0.46 ± 0.0069	0.413 ± 0.019	0.366 ± 0.016	0.4363 ± 0.0023	0.422 ± 0.0045
CSLFFFRLIFTL	0.101 ± 0.025	0.185 ± 0.026	0.219 ± 0.032	0.339 ± 0.0091	0.0783 ± 0.0034	0.0603 ± 0.017	0.0702 ± 0.01	0.0826 ± 0.014
GSDGVGGTVLYA	0.685 ± 0.061	0.755 ± 0.014	0.634 ± 0.021	0.729 ± 0.015	0.638 ± 0.013	0.666 ± 0.023	0.728 ± 0.035	0.687 ± 0.037
SRRRRLVSKFLA	0.63 ± 0.043	0.7 ± 0.042	0.653 ± 0.027	0.729 ± 0.03	0.141 ± 0.019	0.161 ± 0.0082	0.3 ± 0.0063	0.223 ± 0.017
VLLLLGGIVCVM	0.236 ± 0.01	0.227 ± 0.018	0.222 ± 0.024	0.412 ± 0.0065	0.206 ± 0.012	0.229 ± 0.018	0.395 ± 0.019	0.327 ± 0.026
GCVGLSFCVWVG	0.382 ± 0.011	0.502 ± 0.02	0.323 ± 0.031	0.523 ± 0.026	0.175 ± 0.015	0.211 ± 0.018	0.3965 ± 0.0014	0.314 ± 0.023
FPFVYRSVLLFF	0.392 ± 0.052	0.484 ± 0.012	0.411 ± 0.033	0.577 ± 0.011	0.1059 ± 0.00044	0.0991 ± 0.021	0.216 ± 0.029	0.177 ± 0.089
FPVSSRSFSFIP	0.66 ± 0.051	0.7594 ± 0.0028	0.666 ± 0.02	0.732 ± 0.019	0.627 ± 0.02	0.656 ± 0.028	0.717 ± 0.053	0.727 ± 0.046
LVFRVSLVEVVL	0.2142 ± 0.0015	0.299 ± 0.0071	0.232 ± 0.028	0.36 ± 0.01	0.196 ± 0.0062	0.214 ± 0.029	0.334 ± 0.014	0.32 ± 0.014
TIYGYEVTRKIG	0.645 ± 0.068	0.78 ± 0.025	0.621 ± 0.019	0.732 ± 0.031	0.0795 ± 0.011	0.11 ± 0.021	0.145 ± 0.018	0.155 ± 0.0023
RFFKMREAIRIS	0.567 ± 0.088	0.5742 ± 0.00075	0.392 ± 0.022	0.59 ± 0.052	0.205 ± 0.0066	0.24 ± 0.032	0.482 ± 0.0067	0.339 ± 0.027
